Assay results as given in patent US20260103686A1, “MICROBIAL STRAIN, PROTEIN, AND METHOD FOR PRODUCING GALLIC ACID USING MICROBIAL STRAIN OR PROTEIN” (UNIVERSITY OF TSUKUBA, priority 2022, published 2026).

B1: PoPobA: Polaromonas sp.-derived PobA, protocatechuic acid 5-hydroxylase (SEQ ID NO: 22) (protein, listed as Polaromonas sp.)
chain: MRTQVGIVGAGPAGLMLSHMLHLEGIESVIIERASREHVQSRLRAGVLEHGTVDMLRELGLGERIGKIGLEQHAIDFRFGGESHRLDFHQATNGRSAWVYPQHELVTDLMNARMQAGAEILFETPVTRIDGLHTSKPTVHFEQGGEPRELVCDFVVGCDGFRGVCRDAIPDTVLKTYDRVYPFGWLGILAEAPAPTREITWGCHEEGFAMLSIRSPSVTRLYLQCEPDDDPDHWSDDHIWAELHKRLDVPGMPPVNEGKIMQKGVTAMRSFLAEPMQYGKLFLAGDAAHIVPPTGAKGLNSAMADVKVLGRGLAEKYRRGADHLLERYSQICLKRMWLVQRFSAGLCTMVHQFPGDNAFVRRLQRADLDYMTGTAAGRLAFSENFTGLPIE
B2: HgPobA: Hylemonella gracilis-derived PobA, protocatechuic acid 5-hydroxylase (SEQ ID NO: 20) (protein, listed as Hylemonella gracilis)
chain: MSYPTRTQVAIIGAGPSGLMLGALLHKAGIDTVVLERQSGDYVLGRIRAGVLEQVTMDLMDEIGVGARMHQEGLVHGGFDMLFQGQRHRIDMNRLTGGQNVMVYGQTEVTRDLMDARQQAGLTTIYEAANVAIHDFGSGKPRVTYEKDGKTHELQCDFIAGCDGFHGVCRDTVKKSASASAIREYEKVYNFGWLGLLSDTPPVHHELIYVNSERGFALCSQRSATRSRYYLQVPLTDKVEQWSDQAFWDELKLRLDPQAREHLVTGPSIEKSIAPLRSFVTEPLRFGRLFLAGDAGHIVPPAGAKGLNLAATDVKYLSAALTEFYQGKSEAGINHYSERCLKRIWRAERFSWWFTSLMHRFPENGEIGQKLQEAELDYIVHSETGARSVAENFVGLPLDFGA
B3: HgPobA-TY: mutant protein of HgPobA with two mutations T302A and Y393F (protein, listed as Hylemonella gracilis)
chain: B2 chain
B4: PaPobA: Pseudomonas aeruginosa-derived PobA (SEQ ID NO: 28), known enzyme with high PCA-hydroxylating activity (protein, listed as Pseudomonas aeruginosa)
chain: MKTQVAIIGAGPSGLLLGQLLHKAGIDNVILERQTPDYVLGRIRAGVLEQGMVDLLREAGVDRRMARDGLVHEGVEIAFAGQRRRIDLKRLSGGKTVTVYGQTEVTRDLMEAREACGATTVYQAAEVRLHDLQGERPYVTFERDGERLRLDCDYIAGCDGFHGISRQSIPAERLKVFERVYPFGWLGLLADTPPVSHELIYANHPRGFALCSQRSATRSRYYVQVPLSEKVEDWSDERFWTELKARLPSEVAEKLVTGPSLEKSIAPLRSFVVEPMQHGRLFLAGDAAHIVPPTGAKGLNLAASDVSTLYRLLLKAYREGRGELLERYSAICLRRIWKAERFSWWMTSVLHRFPDTDAFSQRIQQTELEYYLGSEAGLATIAENYVGLPYEEIE
B5: HyPobA: Hydrogenophaga sp.-derived PobA, protocatechuic acid 5-hydroxylase (SEQ ID NO: 21) (protein, listed as Hydrogenophaga sp.)
chain: MRTQVGIIGAGPAGLMLAHMLHLEGIESVIIERSKREHVQNRLRAGVLEQGTVEMMRELGLGERIGQLGLEQHRIDFRFGGESHPIDFHEATGGRSAWVYPQHEVVKDLMAARTAAGAQMLFETPVTAIEGIDGTRPVVRFEKDGVAGELHCDFVVGCDGFRGISRRAIPAREGQVHDRIYPFGWLGILAEAPPATNEVTWGCHEDGFAMMSIRTPSVTRLYLQCEPDENPDHWSDDRIWSALHKRLDVPGLPPINEGRITQKGVTAMRSFLFEPMQHGRLFLAGDAAHIVPPTGAKGLNSAMADVKVLARALEQHYQRGSQDLLARYSKTCLKRMWLVQRFSAGLCTMVHSFAGDSSFVRRLQRADLDYMTGTTAGRLQFSENFTGLPID

Assays:
[1] = Reaction kinetic analysis of purified enzymes, substrate PCA (NADPH absorbance at 340 nm); format: biochemical; conditions: relative to PaPobA
Procedure: Using the purified enzyme liquids of HgPobA, HgPobA-TY, PoPobA, HyPobA and PaPobA described above, a reaction kinetic analysis was conducted.

[2] = Analysis of gallic acid-producing activities of purified enzymes (HPLC); format: biochemical; conditions: 2 mM PCA, 0.5 mM NADPH, 10 μg enzyme, 30° C., 30 minutes, pH 7.9
Procedure: Using the purified enzyme liquids of HyPobA, PoPobA, HgPobA-TY and PaPobA described above, the gallic acid-producing activities were analyzed.
By adding 10 μM FAD, 0.5 mM NADPH, 2 mM PCA and 10 μg of the respective purified enzyme liquids to 20 mM Tris-HCl buffer (pH 7.9), 100 μL of reaction liquids were prepared.

Row | Molecule | kcat value for PCA compared with that of PaPobA [1] | relative activity of producing gallic acid from PCA (PaPobA regarded as 1) [2] | Km value for PCA compared with that of PaPobA [1]
1 | B1 | higher kcat values than that of PaPobA | 20 times | 
2 | B2 | higher kcat values than that of PaPobA |  | 
3 | B3 |  | eight | one third or less
4 | B4 |  | 1 times | 
5 | B5 | higher kcat values than that of PaPobA | 20 times | 
